Assay results as given in IntAct's records for PubMed 17451412.

Assays:
wasl_rat Wasl = wasl_rat Wasl (UniProt O08816)
tir_eco57 tir = tir_eco57 tir (UniProt Q7DB77)
Sequence of tir_eco57 tir (Q7DB77 whole entry): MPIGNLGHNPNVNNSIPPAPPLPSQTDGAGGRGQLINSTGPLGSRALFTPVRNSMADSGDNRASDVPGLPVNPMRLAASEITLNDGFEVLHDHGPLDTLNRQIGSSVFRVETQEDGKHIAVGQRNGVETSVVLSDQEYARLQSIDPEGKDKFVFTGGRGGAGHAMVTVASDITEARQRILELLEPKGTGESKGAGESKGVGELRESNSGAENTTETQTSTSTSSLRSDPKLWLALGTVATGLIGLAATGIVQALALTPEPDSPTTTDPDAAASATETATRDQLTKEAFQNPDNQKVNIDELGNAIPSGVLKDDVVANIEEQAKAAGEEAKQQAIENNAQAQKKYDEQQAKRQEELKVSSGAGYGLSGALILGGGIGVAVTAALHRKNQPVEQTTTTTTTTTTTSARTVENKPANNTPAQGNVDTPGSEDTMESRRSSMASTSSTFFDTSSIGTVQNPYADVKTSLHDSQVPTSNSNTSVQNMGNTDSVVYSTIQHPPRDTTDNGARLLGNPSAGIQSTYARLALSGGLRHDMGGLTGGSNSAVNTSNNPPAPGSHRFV

Sequence of wasl_rat Wasl (O08816 whole entry): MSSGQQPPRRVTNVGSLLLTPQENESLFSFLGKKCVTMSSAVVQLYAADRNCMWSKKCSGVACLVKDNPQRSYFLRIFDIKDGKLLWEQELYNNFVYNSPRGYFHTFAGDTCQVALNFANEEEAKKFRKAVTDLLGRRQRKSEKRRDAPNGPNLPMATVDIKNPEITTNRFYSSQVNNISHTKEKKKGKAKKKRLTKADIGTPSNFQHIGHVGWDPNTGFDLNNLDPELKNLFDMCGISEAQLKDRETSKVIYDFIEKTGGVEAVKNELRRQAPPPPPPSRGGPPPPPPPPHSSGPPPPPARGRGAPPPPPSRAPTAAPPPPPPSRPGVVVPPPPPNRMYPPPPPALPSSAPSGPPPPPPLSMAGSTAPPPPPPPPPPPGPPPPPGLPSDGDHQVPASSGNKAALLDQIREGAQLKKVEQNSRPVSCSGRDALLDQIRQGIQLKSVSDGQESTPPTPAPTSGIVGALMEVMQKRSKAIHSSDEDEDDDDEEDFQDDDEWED
Sequence of Src substrate cortactin (Mus musculus), Q60598 Y421D;Y466D (Q60598 whole entry Y421D/Y466D): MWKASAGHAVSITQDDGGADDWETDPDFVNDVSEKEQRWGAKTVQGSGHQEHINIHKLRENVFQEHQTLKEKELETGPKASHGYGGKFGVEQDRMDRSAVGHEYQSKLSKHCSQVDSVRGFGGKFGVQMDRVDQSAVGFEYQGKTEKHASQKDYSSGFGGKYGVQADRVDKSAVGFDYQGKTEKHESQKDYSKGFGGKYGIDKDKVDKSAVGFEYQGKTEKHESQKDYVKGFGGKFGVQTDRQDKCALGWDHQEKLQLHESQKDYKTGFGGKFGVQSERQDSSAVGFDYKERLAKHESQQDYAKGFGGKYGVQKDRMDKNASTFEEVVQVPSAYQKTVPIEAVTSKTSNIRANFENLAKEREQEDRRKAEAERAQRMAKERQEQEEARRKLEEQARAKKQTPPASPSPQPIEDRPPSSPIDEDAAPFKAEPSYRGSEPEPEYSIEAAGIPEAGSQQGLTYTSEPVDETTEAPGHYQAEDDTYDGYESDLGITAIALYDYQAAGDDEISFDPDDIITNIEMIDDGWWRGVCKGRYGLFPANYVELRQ
Sequence of Src substrate cortactin (Mus musculus), Q60598 S405D;S418D (Q60598 whole entry S405D/S418D): as the sequence (Q60598 whole entry Y421D/Y466D) above, with S405D, S418D, D421Y, D466Y counted along it
Sequence of Src substrate cortactin (Mus musculus), Q60598 W525K (Q60598 whole entry W525K): as the sequence (Q60598 whole entry Y421D/Y466D) above, with D421Y, D466Y, W525K counted along it

Src substrate cortactin (Mus musculus), Q60598 S405D;S418D
effect of a mutation on the interaction (wasl_rat Wasl): disrupting interaction
effect of a mutation on the interaction (tir_eco57 tir): with no effect

Src substrate cortactin (Mus musculus), Q60598 W525K
effect of a mutation on the interaction (wasl_rat Wasl): with no effect

Src substrate cortactin (Mus musculus), Q60598 Y421D;Y466D
effect of a mutation on the interaction (wasl_rat Wasl): increasing interaction
effect of a mutation on the interaction (tir_eco57 tir): increasing interaction
